The chains are these.
B1: Protein PALS1 (Homo sapiens), Q8N3R9 (parent)
chain: MTTSHMNGHVTEESDSEVKNVDLASPEEHQKHREMAVDCPGDLGTRMMPIRRSAQLERIRQQQEDMRRRREEEGKKQELDLNSSMRLKKLAQIPPKTGIDNPMFDTEEGIVLESPHYAVKILEIEDLFSSLKHIQHTLVDSQSQEDISLLLQLVQNKDFQNAFKIHNAITVHMNKASPPFPLISNAQDLAQEVQTVLKPVHHKEGQELTALLNTPHIQALLLAHDKVAEQEMQLEPITDERVYESIGQYGGETVKIVRIEKARDIPLGATVRNEMDSVIISRIVKGGAAEKSGLLHEGDEVLEINGIEIRGKDVNEVFDLLSDMHGTLTFVLIPSQQIKPPPAKETVIHVKAHFDYDPSDDPYVPCRELGLSFQKGDILHVISQEDPNWWQAYREGDEDNQPLAGLVPGKSFQQQREAMKQTIEEDKEPEKSGKLWCAKKNKKKRKKVLYNANKNDDYDNEEILTYEEMSLYHQPANRKRPIILIGPQNCGQNELRQRLMNKEKDRFASAVPHTTRSRRDQEVAGRDYHFVSRQAFEADIAAGKFIEHGEFEKNLYGTSIDSVRQVINSGKICLLSLRTQSLKTLRNSDLKPYIIFIAPPSQERLRALLAKEGKNPKPEELREIIEKTREMEQNNGHYFDTAIVNSDLDKAYQELLRLINKLDTEPQWVPSTWLR

Consider 1 variant from IntAct's records for PubMed 33758649.

Variants of B1 are the subject of this assay. The conditions noted are these: with vemp_sars E.
For F318W, the “effect of a mutation on the interaction” value is listed as “increasing interaction strength”.
